Test results: patent US20160047001A1, “Sept4/ARTS AS A TUMOR SUPPRESSOR IN THE DIAGNOSIS, PROGNOSIS AND TREATMENT OF HEPATIC DISORDERS” (CARMEL-HAIFA UNIVERSITY ECONOMIC CORPORATION LTD., priority 2013, published 2016)
“Also recorded” adds a separate entry of the source.

B1: sh-panSept4: miR30-designed shRNA targeting all Sept4-isoforms, including ARTS (nucleic acid)
chain: TGCTGTTGACAGTGAGCGCAAGCACGCAGTGGATATAGAATAGTGAAGCCACAGATGTATTCTATATCCACTGCGTGCTTATGCCTACTGCCTCGGA
B2: sh-ARTS-1: miR30-designed shRNA specifically targeting ARTS, in pLMP retroviral vector (nucleic acid)
chain: TGCTGTTGACAGTGAGCGCAAGGGAACAGGCCGAGTAGCATAGTGAAGCCACAGATGTATGCTACTCGGCCTGTTCCCTTATGCCTACTGCCTCGGA
B3: sh-ARTS-2: miR30-designed shRNA specifically targeting ARTS, in pLMP retroviral vector (nucleic acid)
chain: TGCTGTTGACAGTGAGCGAAACAGGCCGAGTAGCACCACATAGTGAAGCCACAGATGTATGTGGTGCTACTCGGCCTGTTCTGCCTACTGCCTCGGA
B4: sh-ARTS-3: miR30-designed shRNA specifically targeting ARTS, in pLMP retroviral vector (nucleic acid)
chain: TGCTGTTGACAGTGAGCGACGGGTGGTCACTGATTCCTGTTAGTGAAGCCACAGATGTAACAGGAATCAGTGACCACCCGCTGCCTACTGCCTCGGA

Columns and labels:
ARTS mRNA = experiment: RT-PCR of ARTS mRNA after exposure to chromatin-modifying drugs; format: cell-based, human; conditions: for ARTS mRNA level: HCC cell-lines, individual treatment, AZA 10 μM, TSA 1 μM; for ARTS levels: PH5CH non-malignant hepatocyte cell-line
Method: Quantitative reverse transcription polymerase chain reactions (qRT-PCR) incorporating SYBR Green (Applied Biosystems) were carried-out using a Realplex qPCR Mastercycler (Eppendorf; Hauppauge, N.Y.). For semi-quantitative PCR, total RNA was extracted from cell-lines using Trizol reagent (Invitrogen, Carlsbad, Calif.) and in turn, was used to synthesize cDNA using random primers, reagents, and protocol provided in the Superscript 1st strand synthesis kit (Invitrogen). Normalized amounts of cDNA served as template in standard PCR using AmpliTaq DNA polymerase (Applied Biosystems). Immunoblotting was performed as previously described in (7). Cell extracts were prepared from tumor and adjacent non-tumor control tissues that were excised from the liver of sacrificed mice, homogenized by Polytron PT 2100 (Brinkman) in Triton X-100 lysis buffer and clarified by centrifugation. Extracts were normalized for protein concentration by Bradford assay (BioRad) prior to immunoblotting procedures. Signal detection was performed with enhanced chemiluminescence kit (Amersham). The following primary antibodies were used: anti-A6 (gift from Dr. V. Factor NCI/NIH), anti-Flag and anti-β-actin (Sigma); anti-XIAP (Becton Dickinson); anti-cIAP-1 (R&D Systems); anti-β-catenin and anti-Survivin (Cell Signaling), anti-cytokeratin-8 (Fitzgerald Indust. Intl., Concord, Mass.). 5-Aza-2′deoxycytidine (AZA), Trichostatin A (TSA), and cycloheximide (CHX) were purchased from Sigma-Alrich. Tumor-necrosis factor-α, the anti-Fas antibody (Jo-2), and the in vitro methylated genomic Hela DNA were obtained from Peprotech, Pharminogen, and New England Biolabs, respectively. To examine the possibility of epigenetic regulation, chromatin-modifying drugs were tested for their ability to influence ARTS expression. Cells were exposed to DNA-methyltransferase and HDAC inhibitors 5′ aza-cytosine (AZA) and trichostatin A (TSA), respectively.

Sept4/H5-Flag = experiment: Western blot (anti-Flag) of Sept4/H5-Flag knockdown in NIH3T3 fibroblasts; format: cell-based; conditions: NIH3T3 fibroblasts stably expressing Sept4/H5-Flag; retroviral shRNA; anti-Flag immunoblot
Method: FIG. 5I. A pan-Sept4- and Sept4/H5-specific short-hairpins promote efficient knowndown. […] NIH3T3 fibroblasts stably expressing Flag-epitope tagged Sept4/H5 (Sept4/H5-Flag) were transduced with retroviruses harboring the indicated shRNAs, a non-silencing control, or left un-infected Immunoblotting was performed with anti-Flag antibody to detect Sept4/H5-Flag expression (red arrow).
(§1) miR30-designed shRNAs were subcloned into the pLMP (MSCV-based) retroviral vector as previously described (30). Briefly, individual shRNAs were synthesized as 97 base-pair oligos (Sigma Genosys), PCR-amplified, ligated into pLMP following EcoRI/XhoI-digestion.
Immunoblotting was performed as previously described in (7). Cell extracts were prepared from tumor and adjacent non-tumor control tissues that were excised from the liver of sacrificed mice, homogenized by Polytron PT 2100 (Brinkman) in Triton X-100 lysis buffer and clarified by centrifugation. Extracts were normalized for protein concentration by Bradford assay (BioRad) prior to immunoblotting procedures. Signal detection was performed with enhanced chemiluminescence kit (Amersham). […]

PHM-1 hepatoblasts = experiment: Growth of PHM-1 hepatoblasts after sub-cutaneous transplantation into host mice; format: in vivo; conditions: PHM-1 cells carrying the hairpin, sub-cutaneous injection into host mice
Description: FIG. 5D. Growth of PHM-1 hepatoblasts following their sub-cutaneous transplantation into host mice. Values are the mean±standard deviation of four independent experiments. P-values: *P=0.04, **P=0.03, and ***P=0.01.
Details on isolation, culture, retrovirus-mediated gene transfer, and sub-cutaneous transplantation of hepatoblasts can be found in (30). Cell viability was monitored by propidium iodide (PI) nuclear staining and flow cytometric analysis.

ARTS = experiment: Western blot of ARTS knockdown by hairpins in NIH3T3 fibroblasts; format: cell-based
Method: as §1
Immunoblotting was performed as previously described in (7). Cell extracts were prepared from tumor and adjacent non-tumor control tissues that were excised from the liver of sacrificed mice, homogenized by Polytron PT 2100 (Brinkman) in Triton X-100 lysis buffer and clarified by centrifugation. Extracts were normalized for protein concentration by Bradford assay (BioRad) prior to immunoblotting procedures. Signal detection was performed with enhanced chemiluminescence kit (Amersham). The following primary antibodies were used: anti-A6 (gift from Dr. V. Factor NCI/NIH), anti-Flag and anti-β-actin (Sigma); anti-XIAP (Becton Dickinson); anti-cIAP-1 (R&D Systems); anti-β-catenin and anti-Survivin (Cell Signaling), anti-cytokeratin-8 (Fitzgerald Indust. Intl., Concord, Mass.). 5-Aza-2′deoxycytidine (AZA), Trichostatin A (TSA), and cycloheximide (CHX) were purchased from Sigma-Alrich. Tumor-necrosis factor-α, the anti-Fas antibody (Jo-2), and the in vitro methylated genomic Hela DNA were obtained from Peprotech, Pharminogen, and New England Biolabs, respectively.

| Molecule | ARTS mRNA level (ARTS mRNA) | ARTS levels (ARTS mRNA) | ARTS levels (knockdown) (ARTS) | further results |
| --- | --- | --- | --- | --- |
| Nc1ncn([C@H]2C[C@H](O)[C@@H](CO)O2)c(=O)n1 [AZA, 5-Aza-2′deoxycytidine] | upregulation of ARTS mRNA; also recorded: induced ARTS mRNA to levels comparable to those observed in normal hepatocytes | little appreciable effect | – | – |
| CC(/C=C/C(=O)NO)=C\[C@@H](C)C(=O)c1ccc(N(C)C)cc1 [TSA, Trichostatin A] | upregulation of ARTS mRNA; also recorded: induced ARTS mRNA to levels comparable to those observed in normal hepatocytes | little appreciable effect | – | – |
| B1 | – | – | capable of reducing ARTS levels | Sept4/H5 knockdown (Sept4/H5-Flag): highly effective Sept4/H45 knockdown; tumor growth (PHM-1 hepatoblasts): promoted tumor growth |
| B2 | – | – | capable of reducing ARTS levels | – |
| B3 | – | – | capable of reducing ARTS levels | – |
| B4 | – | – | capable of reducing ARTS levels | – |
